Assay [1] has as its target RBD-tag1 (SARS-CoV-2, UniProt P0DTC2 319-541).
Assay [2] has as its target 新冠病毒RBD抗原 (表达的RBD蛋白) (SARS-CoV-2, UniProt P0DTC2 319-541).

B1: 23D52 (antibody, V domains shown)
VH: EVQLVESGGGLVQPGGSLRLSCAASGITVSSNYMNWVRQAPGKGLEWVSVLYSGGSTDYADSVKGRFTISRDNSKNTLYLQMNSLRAEDTAVYYCARDLVVYGMDVWGQGTTVTVSS
VL: DIQLTQSPSFLSASVGDRVTITCRASQGISSYLAWYQQTPGKAPKLLIYAASTLQSGVPSRFSGSGSGTEFTLTISSLQPEDFATYYCQQLNSYPFTFGPGTKVHIK
notes: also called 抗人新冠病毒抗体23D52
In general, IC50 refers to the concentration needed to halve the response being measured. In general, EC50 refers to the midpoint of the concentration-response curve. Consider B1, for which the IC50 in assay [1] was found to be 0.111 mg/L. Besides, in assay [2], a half-maximal effect (EC50) was put at 0.0299 mg/L.

Values taken from patent CN112500481A (SHANXI PROVINCIAL PEOPLES HOSPITAL, dated 2021).
